Patent US5863889A, “ICAM-1/LFA-1 short-chain peptides and method of using same” (The University of Kansas, priority 1996, dated 1999)
“Also recorded” adds a separate entry of the source. Read-outs that look alike come from different tables or passages of the source.

Assays:
Molt3 cells [1] = test: Homotypic adhesion assay (MDHC-induced clumping of T-cells); assay type: cell-based, human; parameters: key to Homotypic Adhesion Amount: Any sample having a score of "+++" or "++++" is considered to have a significant ability to modulate T-cell binding interaction; Any sample having a score of "+++" or "++++" is considered to have a significant ability to modulate T-cell binding interaction; conditions: 10 μM MDHC
Method: As before, the T-cells were Molt3 cells prepared in RPMI 1640 growth medium according to Example 2. An approximate 7 ml aliquot of the growth medium was centrifuged (Jouan Model GT422 at 1400 rpm for 6.5 minutes), and the supernatant fluid was decanted. The pellet was resuspended in the supernatant fluid at titer of about 1×10^6 cells/ml, with the excess supernatant fluid being retained for future resuspension of the peptides.
A 228 nmol quantity of the LJCRF-1 (Sequence ID No. 6) peptide described in Table 1 was diluted with the supernatant fluid to a 500 μl final volume, and filtered in microcentrifuge filter tubes (0.22 micron filter; 3500 rpm for 6 minutes). Serial dilution of the filtered peptide with supernatant fluid was conducted to yield five 125 μl peptide solutions to give respective concentrations of about 115 μM, 230 μM, 460 μM, 910 μM, and 1.82 mM. At each concentration, a 125 μl portion of the cell suspension was pipetted into each 125 μl portion of the peptide solutions to yield combined samples having a 250 μl volume. The 250 μl samples were seeded into individual wells in a 48-well tissue culture grade plate (from Costar of Cambridge, Md.) and incubated at 37° C. for 30 minutes. Each sample received 5 μl of 2,5-methyl dihydroxy cinnamate ("MDHC") for a 10 μM final concentration, and was subsequently incubated for about 10 hours at 37° C. MDHC induces intercellular clumping of human T-cells (Tibbetts, Butler, and Benedict, submitted) by activating the LFA/ICAM binding interaction between respective cells.
Pictures were taken of five random fields per sample using an Olympus photomicroscope having a 0.8 mm field at 400×magnification, and a 3.2 mm field of view at 100×magnification. The amount of clumping observed was quantified by determining the mean number of clumps per field ± a standard error.
FIGS. 5, 6, and 7 replicate photographs taken from exemplary peptide assays. FIG. 5 is a photograph of the control sample having no peptides and no MDHC added, from which essentially no clumping of cells is observed. […] Any sample having a score of "+++" or "++++" is considered to have a significant ability to modulate T-cell binding interaction. This is similar to results obtained by incubating similarly treated cells with antibody against either LFA or ICAM.
The homotypic adhesion assay assesses the actual ability of a candidate peptide to modulate the ability of T-cells to adhere with one another.

Molt3 cells [2] = test: Cell metabolic assay (MTT); assay type: cell-based
Method: After taking the photographs in Example 3 (and in some instances no photographs were taken), cell metabolic activity was assessed by an MTT assay. A 37.5 μl portion of MTT dye (purchased from SIGMA of St. Louis, Mo.), i.e., 3-[4,5-dimethyl thiazole-2yl]-2, 5- diphenyl tetrazolium bromide; thiazolyl blue) was added to each well, and incubated with the cells at 37° C. for about six hours. After incubation, a 250 μl quantity of a MTT solubilization solution (of a type that may be purchased from either Fischer Scientific of St. Louis, Mo. or BCD Labs of Lawrence, Kans.) was added to each well, and incubated with the cells at room temperature overnight. In the morning, the spectrophotometric absorption of each plate was determined at 570 nm in a microplate ELISA reader manufactured by Cambridge Technologies of Water-town, Mass., in order to assess cell viability as an indicator of potential peptide toxicity.

LFA-1 (CD11a) = target: T1, LFA-1 (CD11a) (Homo sapiens, UniProt P20701); test: Antibody binding assay (FACS): anti-LFA-1 mAb (mouse IgG anti-human CD11a) binding to Molt3 T-cells after peptide incubation; assay type: cell-based; conditions: for Fluorescence, % change from control of the medium fluorescence intensity: mAb CD11a, average ± standard error of runs
T1 construct: host or cells: Molt3 human T-cell leukemia line
T1 sequence (P20701 26-1170): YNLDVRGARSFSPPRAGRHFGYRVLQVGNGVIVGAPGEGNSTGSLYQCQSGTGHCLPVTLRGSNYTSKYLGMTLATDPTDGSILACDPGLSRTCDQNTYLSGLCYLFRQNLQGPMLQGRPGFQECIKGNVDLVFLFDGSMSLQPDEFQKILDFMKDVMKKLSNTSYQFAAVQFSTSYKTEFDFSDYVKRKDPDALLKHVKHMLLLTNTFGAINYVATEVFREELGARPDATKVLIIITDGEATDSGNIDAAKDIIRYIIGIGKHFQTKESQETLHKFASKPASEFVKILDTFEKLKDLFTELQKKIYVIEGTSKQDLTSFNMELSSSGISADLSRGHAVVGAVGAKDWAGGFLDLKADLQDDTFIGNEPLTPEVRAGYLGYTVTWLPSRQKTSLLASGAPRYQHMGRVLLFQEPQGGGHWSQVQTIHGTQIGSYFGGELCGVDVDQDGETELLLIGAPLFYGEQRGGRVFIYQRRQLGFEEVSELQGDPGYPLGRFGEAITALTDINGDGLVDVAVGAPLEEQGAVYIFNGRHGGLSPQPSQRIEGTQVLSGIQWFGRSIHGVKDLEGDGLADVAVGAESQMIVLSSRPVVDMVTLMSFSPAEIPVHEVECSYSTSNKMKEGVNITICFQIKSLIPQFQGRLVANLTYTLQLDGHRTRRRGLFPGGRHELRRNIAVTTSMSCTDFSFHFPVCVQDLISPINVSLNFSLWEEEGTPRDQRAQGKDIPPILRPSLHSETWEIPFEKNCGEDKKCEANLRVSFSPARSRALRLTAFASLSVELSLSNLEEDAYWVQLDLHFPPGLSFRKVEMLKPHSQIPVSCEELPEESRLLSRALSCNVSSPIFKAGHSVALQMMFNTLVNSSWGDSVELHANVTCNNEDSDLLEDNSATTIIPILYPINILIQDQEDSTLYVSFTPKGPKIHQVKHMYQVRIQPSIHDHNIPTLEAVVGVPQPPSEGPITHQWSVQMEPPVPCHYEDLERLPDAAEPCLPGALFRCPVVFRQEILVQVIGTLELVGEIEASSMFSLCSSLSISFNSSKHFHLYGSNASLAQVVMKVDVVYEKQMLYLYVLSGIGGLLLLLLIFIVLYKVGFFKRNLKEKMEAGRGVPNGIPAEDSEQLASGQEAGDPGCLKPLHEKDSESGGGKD
T1 sequence (P05107 23-769 partner): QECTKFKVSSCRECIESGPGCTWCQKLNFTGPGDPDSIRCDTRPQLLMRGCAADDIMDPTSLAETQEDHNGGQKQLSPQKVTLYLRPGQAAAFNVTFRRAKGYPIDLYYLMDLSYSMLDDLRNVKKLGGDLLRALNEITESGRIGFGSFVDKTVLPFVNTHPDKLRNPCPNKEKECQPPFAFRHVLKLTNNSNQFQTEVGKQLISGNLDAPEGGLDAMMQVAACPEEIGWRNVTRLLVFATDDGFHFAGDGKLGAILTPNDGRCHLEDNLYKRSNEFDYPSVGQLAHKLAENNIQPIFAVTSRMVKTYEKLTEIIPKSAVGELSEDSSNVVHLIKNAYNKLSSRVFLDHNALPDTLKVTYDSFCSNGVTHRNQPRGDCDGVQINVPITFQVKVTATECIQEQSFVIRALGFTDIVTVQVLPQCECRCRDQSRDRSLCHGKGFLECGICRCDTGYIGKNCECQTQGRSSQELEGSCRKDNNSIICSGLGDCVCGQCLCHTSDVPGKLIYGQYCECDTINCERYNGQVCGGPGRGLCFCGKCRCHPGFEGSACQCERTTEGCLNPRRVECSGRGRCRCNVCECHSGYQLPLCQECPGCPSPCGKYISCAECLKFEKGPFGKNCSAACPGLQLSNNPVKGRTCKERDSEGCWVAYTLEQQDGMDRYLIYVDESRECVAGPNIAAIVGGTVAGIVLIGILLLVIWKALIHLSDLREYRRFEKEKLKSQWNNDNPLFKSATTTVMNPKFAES
Method: A 1 ml quantity of the Molt3 inoculum was warmed to 37° C. and transferred by pipette into about 25 ml of a growth culture medium including RPMI 1640 lymphocyte growth medium (Fisher Scientific of St. Louis, Miss.) mixed with 10% by volume fetal calf serum, 100 units/ml penicillin, 100 μg/ml streptomycin and 2 mM glutamine. The inoculated culture was incubated for three to four days at 37° C. under a normal atmosphere having about 5% CO2 added thereto. This culture was capable of being maintained indefinitely by siphoning away the top (non-cell containing) layer and adding 50 ml (or more) of growth culture medium at intervals of three to four days.
An aqueous buffer solution including Dulbecco's phosphate buffered saline and bovine serum albumin ("-PBS/BSA solution") was prepared for use, and included a mixture of 200 mg KH2 PO4, 1.15 g Na2 HPO4, 100 mg CaCl2, 200 mg KCl, 100 mg MgCl2.6H2 O, 8 g NaCl, with distilled water added to a final 1 liter volume at room temperature, thus, forming a "PBS" solution of pH 7.4 to which was added 0.5% by weight bovine serum albumin.
An aliquot of about 7 ml was removed from the incubated culture medium and subjected to washing with the PBS/BSA solution. The washing procedure was initiated by placing the aliquot in a centrifuge (Model GT422 from Jouan, distributed Piruscio & Assoc. of Manchester, Miss.) at 1400 rpm for 6.5 minutes to separate the cells from the growth medium. The supernatant fluid was decanted, a 5 ml portion of PBS/BSA solution was transferred by pipette into the pellet, and the mixture was again centrifuged as before. The resulting supernatant fluid was decanted and the cells from the pellet were resuspended in PBS/BSA solution at a titer of about 1×10^6 cells/ml. A 500 μl portion of the solution containing the resuspended cells was placed in a microcentrifuge (Marathon 13K/M from Fisher Scientific of St. Louis, Miss.) at 3500 rpm for six minutes, to provide a washed pellet.
[…] The cells were incubated with the peptide cocktail at 37° C. for 45 minutes.
After incubation with the peptide cocktail, several antibodies were successively mixed into the incubated solution. A 75 μl portion of anti-IgM solution (a mixture of 10 μl of goat anti-human IgM stock purchased from Jackson Immuno Research of Westgrove, Pa.; and 65 μl of PBS/BSA solution) was added to the peptide cocktail for blocking of nonspecific binding of the secondary antibody. The resulting mixture was incubated for 10 minutes on ice. About 0.1 μg of a primary antibody including mouse IgG anti-human CD11a (purified according to conventional protocols at the University of Kansas Department of Pharmacology and Toxicology from an American Type Culture hybridoma cell line having Catalogue Number HB-202) was next stirred into the mixture, which was then incubated for 30 minutes at room temperature. The incubated mixture was placed in a microcentrifuge at 3500 rpm for six minutes to remove the cells from the mixture, and the cell pellet was washed two times by adding 500 μl aliquots of PBS/BSA solution and microfuging to remove non-bound antibodies from the cells as before. The resulting washed pellet was resuspended in 100 μl of a secondary antibody cocktail including 5 μl of fluorescein isothiocyanate ("FITC") labeled goat anti-mouse IgG (from CALTAG of South San Francisco, Calif.) and 95 μl of PBS/BSA solution. The resulting solution was incubated for 30 minutes at room temperature in the dark.
The incubated solution including the secondary antibody cocktail was microfuged at 3500 rpm for six minutes to remove the cells from the solution, and the cell pellet was washed two times with 500 μl portions of PBS/BSA solution, as before, to remove unbound antibodies. […]

ICAM-1 = target: T2, ICAM-1 (Homo sapiens, UniProt P05362); test: Conformation modulator assay: flow cytometry of FITC-labeled RB-1-88 binding to T-cells after pre-incubation with first peptide; assay type: cell-based; conditions: first peptide 4550 μM
T2 construct: host or cells: Molt3 human T-cell leukemia line
T2 sequence (P05362 28-532): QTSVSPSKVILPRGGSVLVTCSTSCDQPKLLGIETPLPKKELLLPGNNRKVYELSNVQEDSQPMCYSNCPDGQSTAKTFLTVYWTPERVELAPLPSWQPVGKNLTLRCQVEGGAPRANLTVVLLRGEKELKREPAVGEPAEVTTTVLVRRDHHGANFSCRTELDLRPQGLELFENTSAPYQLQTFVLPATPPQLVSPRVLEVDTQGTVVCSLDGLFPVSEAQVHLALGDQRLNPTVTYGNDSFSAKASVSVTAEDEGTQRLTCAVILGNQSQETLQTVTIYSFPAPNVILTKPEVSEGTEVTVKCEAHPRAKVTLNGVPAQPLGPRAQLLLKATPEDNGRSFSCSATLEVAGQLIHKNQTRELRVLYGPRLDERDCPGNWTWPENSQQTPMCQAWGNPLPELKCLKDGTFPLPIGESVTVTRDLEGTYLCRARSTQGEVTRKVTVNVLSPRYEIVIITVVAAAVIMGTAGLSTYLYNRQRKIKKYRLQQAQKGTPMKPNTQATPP
Method: The antibody binding assay of Example 2 was twice repeated at a peptide concentration of 4550 μM, each time substituting a 455 nmol quantity of synthetic peptide selected from the group consisting of ICAM-based peptide SC-3-111 (Sequence ID No. 10) and LFA-based peptide LJCRF-4 (Sequence ID No. 16) in respective assays. Following incubation for 30 minutes at 37° C. after introduction of the first peptides, both incubated culture were supplemented by an additional quantity of FITC-labeled RB-1-88 (Sequence ID No. 19) peptide in a quantity sufficient to provide a 1.90 μM concentration in the cell/PBS solution.
Following addition of the RB-1-88 (Sequence ID No. 19) peptide, the mixture was incubated for 30 minutes at 4° C., washed three times with 500 μl PBS/BSA, resuspended in 500 μl PBS/BSA and immediately subjected to a flow cytometer analysis as before. Table 3 presents the results of this analysis, which are also depicted in FIGS. 8 (SC-3-111) and 9 (LJCRF-4).

ICAM-1 (CD54) = target: T3, ICAM-1 (CD54) (Homo sapiens, UniProt P05362); test: Antibody binding assay (FACS): anti-ICAM-1 mAb (mouse IgG anti-human CD54) binding to Molt3 T-cells after peptide incubation; assay type: cell-based; conditions: for Fluorescence, % change from control of the medium fluorescence intensity: mAb CD54
T3 construct: host or cells: Molt3 human T-cell leukemia line
T3 sequence (P05362 28-532): as above

[3] = peptide 4550 μM, negative = blocking

Substance	Homotypic Adhesion Amount (Molt3 cells [1]; peptide 460 μM)	Homotypic Adhesion Effect (Molt3 cells [1]; peptide 460 μM)	Homotypic Adhesion Effect (Molt3 cells [1]; peptide 910 μM)	Homotypic Adhesion Amount (Molt3 cells [1]; peptide 1820 μM)	Homotypic Adhesion Effect (Molt3 cells [1]; peptide 1820 μM)	MTT % Viability (Molt3 cells [2]; peptide 460 μM)	MTT % Viability (Molt3 cells [2]; peptide 910 μM)	MTT % Viability (Molt3 cells [2]; peptide 1820 μM)	Fluorescence, % change from control of the medium fluorescence intensity (LFA-1 (CD11a); [3])	further results
LJCRF-1: ICAM-1 based short-chain peptide, Sequence ID No. 6 (QTSVSPSKVILPRGGSVLVTG)	+++	Block	Block	+++	Block	93%	92%	66%	-29 ± 3%	Fluorescence, % change from control of the medium fluorescence intensity (LFA-1 (CD11a); peptide 2275 μM): -12 ± 2%; blocking efficiency (LFA-1 (CD11a); single above-average run (FIGS. 2, 3), peptide 4550 μM, anti-CD11a): 65%
LJCRF-3: ICAM-1 derived short-chain peptide, Sequence ID No. 12 (KELLLPGNNRKVYELSNVQEDSQP)	–	–	–	–	–	–	–	–	-13 ± 19%	MTT % Viability (Molt3 cells [2]): 38%
LJCRF-4: LFA-1β based modulator peptide, Sequence ID No. 16 (DLSYSLDDLRNVKKLGGDLLRALNE)	++++	Block; also recorded: blockers of intercellular adhesion	Block	+++	Block	94%	60%	11%	–	Homotypic Adhesion Amount (Molt3 cells [1]; peptide 115 μM): +++; Homotypic Adhesion Effect (Molt3 cells [1]; peptide 115 μM): Enhance; Homotypic Adhesion Amount (Molt3 cells [1]; peptide 230 μM): +++; Homotypic Adhesion Effect (Molt3 cells [1]; peptide 230 μM): Enhance; also recorded: binding enhancers; Homotypic Adhesion Amount (Molt3 cells [1]; peptide 910 μM): ++++; FACS Analysis (RB-1-88 binding) (ICAM-1; then FITC-labeled RB-1-88 1.90 μM, shift vs control): +145%; effect on binding of labeled peptide (RB-1-88 / LJCRF-6) to T-cell ICAM-1 (ICAM-1; FIGS. 8, 9): synergistically increases binding; also recorded: significant T-cell binding enhancement; also recorded: significantly enhanced; effect on anti-ICAM-1 mAb binding (ICAM-1 (CD54); FIG. 4, peptide 4550 μM): promote the specific antibody binding; Fluorescence, % change from control of the medium fluorescence intensity (ICAM-1 (CD54); peptide 2275 μM, average ± standard error of runs): +3 ± 1%; Fluorescence, % change from control of the medium fluorescence intensity (ICAM-1 (CD54); peptide 6825 μM, 1 run): +521%; median peak curve shift (enhancement) (ICAM-1 (CD54); single run of FIG. 4, peptide 4550 μM, anti-ICAM antibody): +447%; MTT % Viability (Molt3 cells [2]; peptide 115 μM): 99%; MTT % Viability (Molt3 cells [2]; peptide 230 μM): 101%
